We go through 30 sequences from the nanobody polyreactivity screen of Harvey et al. (2022).

This data set in a line: yeast display, Sf9 membrane polyspecificity reagent, FACS + sequencing; frameworks hold sequencing errors. The gist of the method: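 Galactose induction of a Saccharomyces cerevisiae BJ5465 synthetic nanobody display library ran 36–48 hours. The cells were then stained for 1 hour at 4 °C with 10% biotinylated, detergent-solubilized Sf9 membrane reagent, pulled down on streptavidin microbeads and FACS-sorted into low and high (top ~1%) gates on expression and reagent-binding fluorescence. Labels for polyreactivity follow the gate of origin.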
As to “QVQLVESGVGLVQAGGSLRLSCAASGYTFLYYAMGWYRQAPGTERELVAAISSGGRTYYADSVKGRFTISRDNAKNTVYLQMNSLKPEVTAVYYCNTGALIHNGYYGLDYWGQGTQVTVSS”, the “polyreactivity (PSR sort gate)” value was “high polyreactivity”.
“QVQLVESGVGLVQAGGSLRLSCAASVYTFFIYAMRWYRHAHGQERELVARIRATGDSTYYADSVKGRFTISRDNAKNTVYLQMNSLKPDDTAVYYFNVRPVYSYREYGYWGQGTQVTVSS”: the “polyreactivity (PSR sort gate)” value is on record as “high polyreactivity”.
On to “QVQLVESGVGLVQAGGSLRLSCAATGSIFRVNAMGWYRQAPGKERELVAGIRWRGGSTYYADSVKGRFTISRDNAKNTVYLQMNSLKPEDTAVYYCAARSYPFIATYGYWGQGTQVTVSS”, for which the “polyreactivity (PSR sort gate)” value is recorded as “high polyreactivity”.
Next, “QVQLVESGVGLVQAGGSLRLSCAAYGSTFVSNAMGWDRQAPGKERELVAAISTSGGSTYYADSVKGRFTISRDNAKNTVYLQMNSLKPEDTAVYYCAKLLARGFRIWQDYDYWGQGTQVTVSS”: “low polyreactivity”; “QVQLVESGVGLVQAGGSLRLSCADSGLILSKYAKVWYRPAPGKEREFVAAITQTGSRTYYADSVKGRFTSSRDNAKNTVYLQMNSLKPEDTAVYYCNAVNYRSSRDSGYWGQGTQVTVSS”: “high polyreactivity”.
Regarding “QVQLVESGVGLVQAGGSLRLSCASSGYTFFYYSMGWYRQAPGKEREFVAAISTGTGSTYYADSVKGRFTISRDNAKNTVYLQMNSLKPEDTAVYYCAADGTLYYFGLEYDYWGQGTQVTVSS”, the “polyreactivity (PSR sort gate)” value is listed as “low polyreactivity”.
For the sequence “QVQLVESGVGLVQAGGSLRLSCGASGSIFVANVMGWYRQAPGKEREFVATISWNGGNTYYADSVKGRFTISRDNAKNTVYLQMNSLKPEDTAVYYCAAEPLTPSRDRVPYEYYYWGQGTQVTVSS”, the “polyreactivity (PSR sort gate)” value was “high polyreactivity”.
With “QVQLVESGVGLVQAGGSLRLSCSASGSTFFGNGMGWYRQAPGKERELVAAISGGGSTHYADSVKGRFTISRDNAKNTVYLQMNSLKPEDPAVYYCSPSRDTVGRGPIQRDYWGQGTQVTVSS”, the “polyreactivity (PSR sort gate)” value is reported as “low polyreactivity”.
As to “QVQLVESGVGLVQAGGSLRLSSAASGFTFIYYPMGWYRPAPGKERELVAAITSGGNTYYADSVKGRFTISRDNAKNSVYFQMNSLKPEDTAVYYCNKVPHREWVGGYDYWGQGTQVTVSS”, the “polyreactivity (PSR sort gate)” value is listed as “low polyreactivity”.
As for “QVQLVESGVGLVQAGGSLRLSSAASGSIFAHNAMGWYRQEPGKEREFVATITYSGGTTYYADSVKGRFTISRDNAKNTVYLQMNILKPEDTAVYYCAKLRYPYLFWDDSEYWGQGTQVTVSS”, the “polyreactivity (PSR sort gate)” value is recorded as “low polyreactivity”.
For “QVQLVESGVGLVQAGGSLRLSWAATGSIFPYNDLGWYRKAPGKERELVAAISDSAGTTYYADSVKGRFTISRDNAKNTVDLQMNSLKPEDTAGYYCAADSWDSQVVSYEYWGQGTQVTLSS”, the “polyreactivity (PSR sort gate)” value was “low polyreactivity”.
Regarding “QVQLVESGVGLVQAGGSLRLTCAASGITFLYNAMGSYRQAPGKERELVAVITRGGITNYADSVKGRFTISRDNAKNTDSLQMYRLNPEDTAVYDWAAYRGIYSRYDYWGQGTQVNVSS”, the “polyreactivity (PSR sort gate)” value was “high polyreactivity”.
As to “QVQLVESGVGLVQAGGSLSLSCAASGPYYFMGWYRQAPGKESELVAAITRRGGRTYYADSVKGRFTISRDNANITVYLQMNSLKPEDTAVYYCAAKYRYHVSGYDYWGQGTQVTVSS”, the “polyreactivity (PSR sort gate)” value is “high polyreactivity”.
The same measure for “QVQLVESGVGLVQAGVRLRLSCAASGITLRRYAMGWYRQAPGKEREFVAAISRTGGNTYYADSVKGRFTISRDNAKNTVYLQMNSLKPEDTAVYYCAREVYRHYAPVGYDYWGQGTQVTVSS”: “high polyreactivity”; for “QVQLVESGVGLVQAGVSLRLSCAASGIILTEYAMGCYRQAHGKERELVAAINRVGSTNYADSVKGRFTISRDNAKNTVYLQMNSLNPEDTAVYYCAAGTYYNDYDYWGQGTQVTVSS”: “low polyreactivity”.
On to “QVQLVESGVGLVQAGVSLRLSSAASGSIFRLYTMGWYRQATGKERELVAAITWSGGRTYYADSVKGRFTISRDNAKNTVYLQMNSLKPEDTAVYYCAADNWYSTYDYWGRGTQVTVSS”, for which the “polyreactivity (PSR sort gate)” value was “high polyreactivity”.
Take “QVQLVESGVGLVQARGSLRLSCAASGIIFKKTVMGWYRPSPGKERECVAPITSRDGSTYYADSVKGRFTISRDNANNTVYLQMNSLKPEDTAVYYCAAEVYDGYEYEVWYDYCGQGTQVTVSS”: the “polyreactivity (PSR sort gate)” value is recorded as “high polyreactivity”.
The same measure for “QVQLVESGVGLVQARGSLRLSSAASGRIFDRNAMGWYRQSPGNERELVAAIDDSGGDTSYADSVKGRFTISRDNAKNTVYLQMTSLKPEDTAVYYCNAVKQRSSIFDYWGQGTQLTVSS”: “low polyreactivity”; for “QVQLVESGVGLVQARRSLRLSCAASGSSKLILWDGIDRRLGKKGSWLPLFVLVVLRNYADSVKGRFTISRDNAKNTVYLQMNILKPDDTEVYYCAATAIGSGGWGDYWGLGTQVTVSS”: “low polyreactivity”.
“QVQLVESGVGLVQPGGILRLSCAASGIIFTQYAMGWNIQAPGKESELVAAMSGSGGSTYYADSVKGRFTISRDNAKNTVYLQMNSLKPEDTAVFYCAAGGVRGPGVESRMFYLGQGTQVTVSS”: the “polyreactivity (PSR sort gate)” value is on record as “high polyreactivity”.
As for “QVQLVESGVGVVQAGGSLRLSCAASGRIFYGYAMGWYRQAPGKERELVAAISRGGTRTFYADSVKGRFTISRDNAKNTVYVQMNSLKPEDTAVYYCAARKRDFYSGYEYYYWGQGTQVTVSS”, the “polyreactivity (PSR sort gate)” value is on record as “high polyreactivity”.
For the sequence “QVQLVESGVRLGQAGGSLRLSCAASGSIFLRYAMGWFRPAPGKERELVATISQRGSTYYADSVKGRFTISRDNAKNTVYLKKNSLKPEDTAVYYCNAVGRARTLGSNTYGYWGQGTQVTVSS”, the “polyreactivity (PSR sort gate)” value was “high polyreactivity”.
Take “QVQLVESGVRLVQAGGRLRLSCAASGRIFDHNAMGWYRQAPGKERELVAAIDSGTSTNYADSVKGRFTISRDNAKNTVYLQMNSLKPEDTAVYYCARLLGPVRHKYDYDYWGQGTQVTVSS”: the “polyreactivity (PSR sort gate)” value is “low polyreactivity”.
“QVQLVESGVRLVQAGGSLRLSCAASGRTLKYNAMGWYIQAPGKERELVAAISYSGSSTYYADSVRGRFTISRDNAKNTVYLQMNSLKPEDTAVYYFNTARPTAAYDYWGQGTQVTVSS”: the “polyreactivity (PSR sort gate)” value is given as “low polyreactivity”.
Consider “QVQLVESGVRLVQAVGSHRLSCAASASIIDGNSMGWYRQAPGKERELGAVISSRGTRTYYADSVKGRFTISRDNAKKTVYLQMNILKPEDTAVYYCNTRTSDLNGSGDYWGLGTQVTVSS”, for which the “polyreactivity (PSR sort gate)” value is on record as “high polyreactivity”.
Regarding “QVQLVESGVVLVQAGGSLRLSCAASGTIFDLNAMGWYRQAPGKEREFVAAISSGGGTYYADSVKGRFTISRDNANNTVYLQMNSQKPEDTAVYYCKARARRYGGRYYYWGQGTQVTVSS”, the “polyreactivity (PSR sort gate)” value is on record as “high polyreactivity”.
On to “QVQLVESPGGLDQAGGSLRLSGAASGSTLYDNAMGWYRQAPGKERELVAAISRSGGRTYYADSVKGRFTISRDNAKNTVYLHMNSLIPEDTAVYYCNAVVNGPGNYVTYDSWGQGTQVTVSS”, for which the “polyreactivity (PSR sort gate)” value is “high polyreactivity”.
The same measure for “QVQLVESRGGIVQAGGSLRLSCAASGRIFNNYAMGCYRQAPGKERELDAAISGGGSTNYADSVKGRFTISRDNETNTVYLQMNSLKPEDTAVYYSATGYLKASRDLYETVPYDYWGQGTQVTVSS”: “low polyreactivity”.
With “QVQLVESRGGIVQAGGSLRLSSAASGSTFAYNDLGWYRQAPGKERQLVADMRSGGNTNYADSVKGRFTISRDNAKNTVYLQMNSLKPEDTAVYYCATDGYRIDVYHPDYRYDYWGLGTQVTVSS”, the “polyreactivity (PSR sort gate)” value is given as “low polyreactivity”.
Consider “QVQLVESRGGLLQAGGSLRLSCAASGSIFKYYSMGSYRQAPGKERELVAAIRWSGGTTYYADSVKGRFTISRDNAKNTVYLQMNSLKPEDTAVYYCAAEYFNQNTREGYDYWGQGSQVTVSS”, for which the “polyreactivity (PSR sort gate)” value is “low polyreactivity”.
